# Experimental data as given in the supplement of paper PMC9112550, “Optimization of the antimicrobial peptide Bac7 by deep mutational scanning” (BMC Biology, 2022).
# Tested on: Escherichia coli TOP10
# Assay: shrunken log2 fold change of peptide-encoding DNA abundance (4.5 h post-induction vs induction); higher = less antimicrobial activity (less host growth inhibition)
# Conditions: time post-induction: 4.5 h; library: site-saturation at positions 5, 18, 19, 20
# 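Note: peptides expressed intracellularly from a pBAD plasmid library in pooled LB shake-flask culture, induced with 0.3% L-arabinose, DNA abundance read by NGS, three biological replicates, DESeq2 with apeglm shrinkage.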
row,Sequence,shrunken log2 fold change
1,RRIRCRPPRLPRPRPRPHSTPRP,-0.698
2,RRIRIRPPRLPRPRPRPLCIPRP,-0.484
3,RRIRCRPPRLPRPRPRPDSKPRP,-0.657
4,RRIRIRPPRLPRPRPRPHMCPRP,-1.25
5,RRIRSRPPRLPRPRPRPSLRPRP,-0.269
6,RRIRPRPPRLPRPRPRPEMPPRP,0.762
7,RRIRMRPPRLPRPRPRPTVGPRP,0.146
8,RRIRGRPPRLPRPRPRPHAKPRP,0.126
9,RRIRIRPPRLPRPRPRPVRHPRP,-0.0859
10,RRIRTRPPRLPRPRPRPYQTPRP,-0.128
11,RRIRRRPPRLPRPRPRPNLTPRP,-0.245
12,RRIRMRPPRLPRPRPRPWVPPRP,-0.0184
13,RRIRTRPPRLPRPRPRPYNYPRP,-0.866
14,RRIRCRPPRLPRPRPRPNKEPRP,-0.189
15,RRIRARPPRLPRPRPRPFEPPRP,0.276
16,RRIRERPPRLPRPRPRPTEWPRP,-0.551
17,RRIRHRPPRLPRPRPRPCRSPRP,-0.0622
18,RRIRHRPPRLPRPRPRPKYPPRP,0.0718
19,RRIRVRPPRLPRPRPRPLSIPRP,-0.233
20,RRIRARPPRLPRPRPRPEYYPRP,-0.059
21,RRIRWRPPRLPRPRPRPCMLPRP,-0.215
22,RRIRYRPPRLPRPRPRPTGSPRP,0.0529
23,RRIRCRPPRLPRPRPRPLMPPRP,-0.151
24,RRIRSRPPRLPRPRPRPKYPPRP,-0.186
25,RRIRYRPPRLPRPRPRPGKGPRP,-0.0232
26,RRIRRRPPRLPRPRPRPWYKPRP,-0.371
27,RRIRFRPPRLPRPRPRPGASPRP,0.109

row,Sequence,shrunken log2 fold change
1,RRIRVRPPRLPRPRPRPVCRPRP,-0.0404
2,RRIRWRPPRLPRPRPRPHRGPRP,-0.0412
3,RRIRDRPPRLPRPRPRPQPNPRP,0.072
4,RRIRIRPPRLPRPRPRPWMSPRP,-0.266
5,RRIRQRPPRLPRPRPRPLLAPRP,0.328
6,RRIRDRPPRLPRPRPRPTMNPRP,0.116
7,RRIRPRPPRLPRPRPRPSAVPRP,0.0719
8,RRIRQRPPRLPRPRPRPKPPPRP,0.27
9,RRIRIRPPRLPRPRPRPRFGPRP,0.174
10,RRIRRRPPRLPRPRPRPSQRPRP,0.0863
11,RRIRKRPPRLPRPRPRPYQQPRP,-0.00547
12,RRIRIRPPRLPRPRPRPSYPPRP,-0.56
13,RRIRDRPPRLPRPRPRPCQPPRP,-0.144
14,RRIRVRPPRLPRPRPRPYMDPRP,-0.0331
15,RRIRGRPPRLPRPRPRPDVMPRP,1.33
16,RRIRIRPPRLPRPRPRPVDSPRP,0.0804
17,RRIRWRPPRLPRPRPRPINLPRP,-0.748
18,RRIRTRPPRLPRPRPRPKLVPRP,0.016
19,RRIRMRPPRLPRPRPRPDPWPRP,0.336
20,RRIRNRPPRLPRPRPRPVHKPRP,-0.182
21,RRIRQRPPRLPRPRPRPCKPPRP,-0.207
22,RRIRMRPPRLPRPRPRPTMCPRP,0.674
23,RRIRPRPPRLPRPRPRPCHPPRP,-0.154
24,RRIRPRPPRLPRPRPRPMDWPRP,0.432
25,RRIRMRPPRLPRPRPRPFFQPRP,-0.134
26,RRIRLRPPRLPRPRPRPTMVPRP,-0.0972
27,RRIRMRPPRLPRPRPRPFAPPRP,0.633
